Results from the DeepSol protein solubility set.

test: soluble on expression in E. coli; label from the status in PepcDB or PDB records

Soluble on expression in E. coli, not soluble:
MGSDKIHHHHHHMWENFLFSVDRKETTMSMRLLARKMLFMRGASWQHPVIRLGLTALDPVDAIIRSATGLRSLPRYSTRVRSNGLSNQFGGGKFARQGRVILHMLQRHCALSPKSRVLEIGCGCGRTAVQLASFLEAEKYVGMDIEMVSLEACRDNPHLKRRGFKFDLIDIQNNEYNPKGRFRADEYRFSYLDGSMDCVFLISVFTHMLPEDVSNYVTEIGRMLDRGGMCLFSTFLIDHGRGGRGLNFAHDGNGFSYYDVRMPEIAVAYPQRFFEDSFGRAGLVLHEVKLGSWRDDGRGSYPEFGQDVLVFKKAA
MGSDKIHHHHHHMWSFKSMFNTPEDPEKDAYEFYGKVQPGITTPTQKTCNFVALDLKSKDRDAIKAMFKKWTVMADRMMDGDTVGKTSNNPLMPPVDTGESIGLGASKLTITFGISKSLMKKIGLSSKIPDAFKDLPHFPNDQLIDDYSDGDIMIQACSNDSQVSFHAVHNLVRPFRDIVKVRWAQSGFISAKGKETPRNLMAFKDGTINPRKSNQLKDYVFIDDGWAKHGTYCVVRRIQIHIETWDRTALEEQEATFGRKRHSGAPLTGGKEFDEIDLKAKDSHGEYIIDKDAHTRLAKEANTSILRRAFNYVDGTDDRTGNFETGLLFIAFQKATKQFIDIQNNLGSNDKLNEYITHRGSASFLVLPGVSKGGYLGETLFD
MGSDKIHHHHHHMWTPMRDGPPKGMHGGKSERPISPRMKPSGLRIWTGSPRAANSERASDEALSCTHIQTCVARLRDTFPSGTVERGQHGGTTVNLIDGIKGNRFAVFGRAGMDMFADPIGTKSEDATTFRADLGGSSANICAGLVKLGAEAALVTSVSDDAVGRFCVNRLRDYGVETRYVRAVGGEARTSLAVYESRIDDFQNVIYRNGAADFQVTKADMDAVDYSAFSALITAGTVFAAEPSRSATFRAFEHARTAGLPVIFDIDYRPYSWPSPEVASEVLTRAGEASDLIVGNDEEFGFMAGHIDKGLEKARALAAQGRMVIYKMGEAGAITIAEGQEIRTGIYPVTAVKPNGAGDSFMAGLLASIAQGHALSDAVLRGSACASIVVSQPGCANAMPTTAELEAFLASHPGPTV
MGSDKIHHHHHHMYLDVIEPDHPDYLTALLVKADLYDTEGLTEVAREKLLEASQISQEPLVIFGLAEIEMNLSDFQAAIQHYAQLDNRAILEETGVSTYERIGRAYASLGKFETAIEFLEKAVEIEFDETTVFEVATLLYDQEEYQRANLYFKQLDSMNPDFAGYEYNYALSLHAEHQTKQALRMLQQGLSKNEFDSQLLLLASQLSYELHDKKAAENYLLKVLETAEDDEEALMRLSNLYLEENRFEDVINLDRADIDSVLTKWNIAKAYQKLEADTKALEIYDTLIVDLADNPDFLKDYIYILRKFGYDEKVKTFADKYLQLVPDDNDIADLREQLQ
MGSDKIHHHHHHMYLGIDVGGTHTDAVVLDAQKRIQAWAKVPTLHHDLLSSVTQALDSVLQSVAAQDIVRLNLSTTLSTNAIVESKTEDVGVLVSSGPGIDPENFRQGGFFFPLSGSIDHRGKVIAAMEQDELAAAVRRCCDSGIRVYAAVGKFSTRNPDHEETMAHEAMQCGDFVSMGHRLSGQLSFPRRVATAYYNSAVWRLYNSFADAVESSARAKGVTAPVHILKADGGTMPLAVSRRMPVESILSGPAASVMGIVALYDIREDAVILDIGGTTTDIALFASGSPVIENDGISVGSYPTLVRALRTLSIGVGGDSRLRIAAGAVRVGPDRSGPCVANGGTHVALMDAMNYLEVAAVGDVEASREAVRQLASLWDMYPEKLAREALDTAVNTICAAVDRLLDEVNAQPVYTIIELLDGVKLNPGRVFVMGGPAAAFAPLLRNVMNRRIDVPRDHAVANAVGAALTRTTAELELFADTEKGLVFVPTLGLRREAPLGYNLDDAVADAGRYLTESLAGMGIHIRPEDVDVLEAGSFNMVDMYGGKGRNIRVKCQVRPGISL
MGSDKIHHHHHHMYLKVYKEDVIEGLQKAANIIPAKTGAAYLRSIWLNAADGTLSVMATDSNIEFRGTYTAEVTEPGLAGVQGRAFVDLLRKLPAGEIVLQLDAEANVLRIEQGRRKYKLPVNDPVWFQNFSDFPADGAVVWSGDFLQELIDRIAFCISDEDAVEAIACLFMKPVAEGRIEACGLNGHQFAMLRFLHDDLHAKLPAEGVLVQKKYLGELKKWLGADEIELNISEKRMHLRTGDGRETFSLPLSSYQYPDYMNFIAKLQGEGVSNLEVDRKEGMDALDRLQIFNSDNNRCTYFDLSGGEVVLTAQGQDVGSASESLEASYDGDIRRIAFPTRNLIDIMNHYQSGRLRLTLTGAEGPCGISGEEDPEYQVIVMPMKIVEETYYSEEEV
